# According to patent US20040121956A1 (PHARMACIA AND UPJOHN, published 2004):
# Where no end group is shown, it is not given here.
# T1: DmGPCR6a (M811490) (Drosophila melanogaster, UniProt P25931 1-464)
# T1 sequence (looked up): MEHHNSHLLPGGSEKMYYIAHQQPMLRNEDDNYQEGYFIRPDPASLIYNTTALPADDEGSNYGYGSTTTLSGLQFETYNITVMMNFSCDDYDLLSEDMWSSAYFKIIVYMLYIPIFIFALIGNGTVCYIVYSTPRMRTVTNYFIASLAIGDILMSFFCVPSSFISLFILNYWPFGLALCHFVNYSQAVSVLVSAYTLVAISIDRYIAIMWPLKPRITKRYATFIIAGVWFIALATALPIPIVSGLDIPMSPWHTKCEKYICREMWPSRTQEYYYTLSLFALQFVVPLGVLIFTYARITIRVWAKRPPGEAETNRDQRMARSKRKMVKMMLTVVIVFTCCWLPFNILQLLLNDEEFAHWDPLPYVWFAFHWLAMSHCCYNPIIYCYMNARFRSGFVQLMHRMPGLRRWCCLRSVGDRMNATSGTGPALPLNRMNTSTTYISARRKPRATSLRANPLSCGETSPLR
# T2: DmGPCR1 (PnuFlyPep34651) (Drosophila melanogaster)
# T2 chain: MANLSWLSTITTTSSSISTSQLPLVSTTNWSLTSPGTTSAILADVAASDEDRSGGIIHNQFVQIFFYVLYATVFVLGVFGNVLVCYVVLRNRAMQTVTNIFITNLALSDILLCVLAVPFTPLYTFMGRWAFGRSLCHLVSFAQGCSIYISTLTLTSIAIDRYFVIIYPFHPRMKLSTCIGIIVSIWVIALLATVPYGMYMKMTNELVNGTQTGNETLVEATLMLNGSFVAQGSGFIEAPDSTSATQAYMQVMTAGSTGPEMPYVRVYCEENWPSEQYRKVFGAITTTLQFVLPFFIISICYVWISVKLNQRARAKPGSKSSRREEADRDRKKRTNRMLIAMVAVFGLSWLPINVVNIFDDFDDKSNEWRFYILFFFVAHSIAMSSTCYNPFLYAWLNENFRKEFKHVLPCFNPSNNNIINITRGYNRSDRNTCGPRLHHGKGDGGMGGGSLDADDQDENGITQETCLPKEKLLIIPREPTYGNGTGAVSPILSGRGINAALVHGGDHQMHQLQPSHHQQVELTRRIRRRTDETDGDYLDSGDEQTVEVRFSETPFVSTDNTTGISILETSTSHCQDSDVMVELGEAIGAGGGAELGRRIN
# B1: human NPFF (FLFQPQRF-NH2) (peptide)
# peptide: FLFQPQRF-NH2
# B2: ARGPQLRLRF-NH2 (peptide)
# peptide: ARGPQLRLRF-NH2
# What was measured:
# DmGPCR6a (M811490) = target: T1, DmGPCR6a (M811490); assay: cell-based or functional assay
# DmGPCR1 (PnuFlyPep34651) = target: T2, DmGPCR1 (PnuFlyPep34651); assay: cell-based or functional assay
Binder,"GTPγS binding, fold increase, 5 µM NPFF (DmGPCR6a (M811490)) [fold]","EC50, FLIPR assay (DmGPCR1 (PnuFlyPep34651)) [nM]"
B1,4,
B2,,100 to 200
